Measurements published in the nanobody polyreactivity screen of Harvey et al. (2022).

Experiment: yeast display, Sf9 membrane polyspecificity reagent, FACS + sequencing; frameworks hold sequencing errors
How it was run: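 Synthetic nanobody libraries on Saccharomyces cerevisiae BJ5465 were galactose-induced for 36–48 hours, stained 1 hour at 4 °C with 10% biotinylated, detergent-solubilized Sf9 membrane reagent and enriched on streptavidin microbeads. FACS then separated cells into low and high (top ~1%) gates by anti-HA (expression) and streptavidin (reagent binding) fluorescence. Genes were colony-PCR amplified, MiSeq 2 × 250 sequenced and CDR-length filtered. A clone's polyreactivity label is that of its gate of origin.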

Sequence	polyreactivity (PSR sort gate)
QVQLVESGGGLVQAGGSLRLSCAASGRIFGQYAMGWYRQAPGKERELVAAITYSTGSTSYADSVKGRFTISRDNAKNTVYLQMNSLKPEDTAVYYCAAGGGRWYYPKRGSPYGFYYWGLGTQVTVSS	high polyreactivity
QVQLVESGGGLVQAGGSLRLSCAASGRIFGRNAMGWYRQAPGKERELVAAIRLSGGSTYYADSVKGRFTISRDNAKNTVYLQMNSLKPEDTAVYYCATRPVANGRKYDYWGQGTQVTVSS	high polyreactivity
QVQLVESGGGLVQAGGSLRLSCAASGRIFGRNTMGWYRQAAGKERELVASITFGGVSTYYADSVKGRFTISRDTEKNTVYLQMNSLKPEDTEVYYCAAVLINYEGYDSWGQGTQVTVSS	low polyreactivity
QVQLVESGGGLVQAGGSLRLSCAASGRIFGRYAMGWSRQAPGKERELVASISKRGGSTYYADSVKGRFTISRDNAKNTVYLQMNSLKPEDTAVYYCAALFLSHIYYYWGQGTQVTVSS	high polyreactivity
QVQLVESGGGLVQAGGSLRLSCAASGRIFGRYAMGWYIQAPGKERELVAAISRRGVSTTYADSVKGRFTISRDNAKNTVYLQMNSLKPEDTAVYYCAAVRYGYSSTRDYLGQGTQVTVSS	high polyreactivity
QVQLVESGGGLVQAGGSLRLSCAASGRIFGRYAMGWYRQAPGKERELVAAISVSGGSTYYADSVKGRFTISRDNAKNTVYLQMNSLKPEDTAVYYCATEWRPRYYGTEPFDSWGQGTQVTVSS	high polyreactivity
QVQLVESGGGLVQAGGSLRLSCAASGRIFGRYAMGWYRQAPGKERELVADITYRTGRTYYADSVKGRFTISRDNAKNTVYLQMNSMKPEDTAVYYCAAESTSDPIDFEYWGQGTQVTVSS	low polyreactivity
QVQLVESGGGLVQAGGSLRLSCAASGRIFGRYAMGWYRQAPGKERELVATITSGGSTYYADSVKGRFTISRDNAKNTDYLQMNSLKPEDTAVYFCAAVHRGYFLAFYYWGQGTQVTVSS	high polyreactivity
QVQLVESGGGLVQAGGSLRLSCAASGRIFGRYTMGWYRQAPGKGRELDAAISDSGDSTYADSVKGRFTISRDNAKNSVYFQMNSLKPEDTAVYFCNAQSGSFAGHEYDYWGQGTQLTVSS	low polyreactivity
QVQLVESGGGLVQAGGSLRLSCAASGRIFGRYVMGWYRQAPGKERELVAVISRRSGNTYYADSVKGRFTISRDYAKNTVYLQMNSLKPEDTAVLYCAARYYYSKSDRYDYWGEGTQVTVSS	high polyreactivity
QVQLVESGGGLVQAGGSLRLSCAASGRIFGSYAMGWYRPAPGKERELVAAINRSGGSTRYADSVKGRFTISRDNAKNTVYLQMNSLKPEDTAVYYCAAPSYARYYAYDSWGQGTQVTVSS	high polyreactivity
QVQLVESGGGLVQAGGSLRLSCAASGRIFGSYAMGWYRQAPGKERELVAAISGSGSRTYYADSVKGRFTISRDNAKNTVYLQMNSLKPEDTAVYYCNKYRFRVYPFGYWGQGTQVTVSS	high polyreactivity
QVQLVESGGGLVQAGGSLRLSCAASGRIFGSYAMGWYRQAPGKERELVAAISWRGTSTYYADSVKRRFTISRDNAKKTVYLQMNSLKPEDTAVYYCAARGLWPYDYWGQGTQVTVSS	low polyreactivity
QVQLVESGGGLVQAGGSLRLSCAASGRIFGSYAMGWYRQAPGKERELVAAISWSGGRTYYADSVKGRFTISRDNAKNTVYLQMNSLKPEDTAVYYCNALVFGRYRDMDYWGQGTQVTVSS	high polyreactivity
QVQLVESGGGLVQAGGSLRLSCAASGRIFGSYAMGWYRQAPGKERELVAAITTDDSTNYADSVKGRFTISRDNAKNTVYLQMNSLKPEDTAVYYCNAERWDELFDSWGQGTQVTVSS	low polyreactivity
QVQLVESGGGLVQAGGSLRLSCAASGRIFGSYAMGWYRQAPGKERELVASITSSGGSTYYADSVKGRFTISRDNAKNTVYLQMNSLKPEDTAVYYCAAGCAYLDAFYPYGYWGQGTQVTVSS	low polyreactivity
QVQLVESGGGLVQAGGSLRLSCAASGRIFGSYTMGWYRQAPGKERELVAAISFSGARTRYADSVKGRFTISRDNANNTVYLQMNSLKPEDTAVYYCAARFTGGKYDYWGQGTQVTVSS	high polyreactivity
QVQLVESGGGLVQAGGSLRLSCAASGRIFGTNAMGWYRQAPGKERELVAAISRSGGSTYYADSVKGRFTISRDNAKNTVYLQMNSLKPEDTAVYYCATDGRHTYYYWGQGTQVTVSS	high polyreactivity
QVQLVESGGGLVQAGGSLRLSCAASGRIFGTNAMGWYRQAPRKERELVATITRGGGNTYYADSVKGRFTISRDNAKNTVYLQLNSLKPEDTAVYYCAAYDSVQKYWILGFDYWGQGTQVTVSS	low polyreactivity
QVQLVESGGGLVQAGGSLRLSCAASGRIFGTYAMGWYIQAPGKERELVAGITWRTASTYYADSVKGRFTISRDNAKNTVYLQMNSLKPEDTAVYYCNADAWVWYYYYSYDYWGQGTQVTVSS	low polyreactivity
QVQLVESGGGLVQAGGSLRLSCAASGRIFGTYAMGWYRQAPGKEREFVAAITSSGGNTYYADSVKGRFTISRDNAKNTVYLQMNSLKPEDTGVYYCNARPLYRHYITRFDYWGQGTQVTVSS	high polyreactivity
QVQLVESGGGLVQAGGSLRLSCAASGRIFGTYAMGWYRQAPGKERELVAAITQSGGSTYYADSVKGRFTISRDNAKNTVYLQMNSLKPEDTAVYYCKLVKTTSTLGKRRYDYWGQGTQVTVSS	high polyreactivity

Sequence	polyreactivity (PSR sort gate)
QVQLVESGGGLVQAGGSLRLSCAASGRIFGTYAMGWYRQAPGKERELVAAITRDGSTNYADSVKGRFTISRDNAKNTVYLQMYSLKTEDSAVYYCAAGYLPDPDDYDSWGQGTQVNVSS	low polyreactivity
QVQLVESGGGLVQAGGSLRLSCAASGRIFGVNAMGGYRQAPGKERELVAAIFSGGSTYYADSVKGRFTISRDNAKNTVYLQMNSLKPEDTAVYYCAKLYTVAIVWSAYDYWGQGTQVTVSS	low polyreactivity
QVQLVESGGGLVQAGGSLRLSCAASGRIFGVNAMGWYRPAPGKERELVAHIRSSGASTYYADSVKGRFTISRDNAKNTVYLQMNSLKPEDTAVYYCARDYFVDGPGYDYWGQGTQVTVSS	low polyreactivity
QVQLVESGGGLVQAGGSLRLSCAASGRIFGVNAMGWYRQAPGKERELVAGITTSGGSTYYADSVKGRFTISRDNAKNTVYLQMNSLKPEDTAVYYFNGLTRRWYSLRSYDYWGQGTQVTVSW	high polyreactivity
QVQLVESGGGLVQAGGSLRLSCAASGRIFGVNTMGWYRQEPGKEREMVAVIRESDGSTYYADSVKGRFTISRDNAKNTVYLQMNSLKPEDTAVYYCAKDWYRSPSTYEWNSQYGYWGQGTQVTVSS	low polyreactivity
QVQLVESGGGLVQAGGSLRLSCAASGRIFGVYAMGWYRPAPGKERELVAAITRGASTYYADSVKGRFTISRDNAKNTVYLQMNSLKPEDTAVYYCAAVVSGRYWGYYSWGQGTQVTVSS	high polyreactivity
QVQLVESGGGLVQAGGSLRLSCAASGRIFGVYAMGWYRQAPGKERELGAALSEGGGSTNYADSVKGRFTISRDNAKNTVYLQMNSLKPEDTAVDYCAATSRTGVRRYYSWGQGTQVTVSS	low polyreactivity
QVQLVESGGGLVQAGGSLRLSCAASGRIFGVYAMGWYRQAPGKERELVAAIRGGGSTKYADSVKGRFTISRDNAKNTVYLQMNSLKPEDTAVYYCAARKRYYKHDYWGQGTQVTVSS	low polyreactivity
QVQLVESGGGLVQAGGSLRLSCAASGRIFGVYAMGWYRQAPGKERELVAAISEGGGSTNYADSVKGRFTISRDNAKNTVYLQMNSLKPEDTAVYYCAADRSYYGYGYWGQGTQVTVSS	low polyreactivity
QVQLVESGGGLVQAGGSLRLSCAASGRIFGVYAMGWYRQAPGKERELVAAITRGASTYYADSVKGRFTISRDNAKNTVYLQMNSLKPEDCAVYYCAVSQYRGIYRMDYWGQGTQVTVSS	high polyreactivity
QVQLVESGGGLVQAGGSLRLSCAASGRIFGVYAMGWYRQAPGKERELVAAITSSGGRTYYADSVKGRFTISRDNAKNTVYLQMNSLKPEDTAVYYCAALGWSRRGKFNYWGQGTQVTVSS	high polyreactivity
QVQLVESGGGLVQAGGSLRLSCAASGRIFGVYAMGWYRQAPGKERELVAAIYSGSTTYYADSVKGRFTISRDNAKNTVYVQMNSLKPEDTAVYYCAAVSRDDNYQDYYSWGQGTQVTGSS	low polyreactivity
QVQLVESGGGLVQAGGSLRLSCAASGRIFGVYAMGWYRQAPGKERELVADISWSGSGTYADSVKGRFTISRDNAKNTVYLQMMSLKPEDTAVYYCNVDPAQIHAGYVGYDYWGQGTQVTVSS	low polyreactivity
QVQLVESGGGLVQAGGSLRLSCAASGRIFGVYAMGWYRQAPGKERELVASITGSGGRTYYADSVKGRFTISRDNAKNTVYLQMNSLKPEDTAVYYCAAKWGTRLAQQKSYGYWGQGTQVTVSS	high polyreactivity
QVQLVESGGGLVQAGGSLRLSCAASGRIFGVYAMGWYRQAPGKERELVATITSGGSTSYADSVKGRFTISRDNAKNTVYLQMNSPKPEDTAVYYCNAPYSFFWQQMNYWGQGTQVTVSS	low polyreactivity
QVQLVESGGGLVQAGGSLRLSCAASGRIFGVYVMGWYRQAPGKERELVAAISWSGSHTYYADSVKGRFTISRDNAKNTVYLQMNSLKPEDTAVYYCAAGASLWRLGLKMGYWGQGTQVTVSS	low polyreactivity
QVQLVESGGGLVQAGGSLRLSCAASGRIFGVYVMGWYRQAPGKERELVAAISWSGSHTYYADSVKGRFTISRDNAKNTVYLQMNSLKPEDTAVYYCNADSSPEYTGPGLDWYDYWGQGTQVTVSS	low polyreactivity
QVQLVESGGGLVQAGGSLRLSCAASGRIFGWYAMGWYRQAPGKERELVAAIDGGDDSTYYADSVKGRFTISRDNAKNTVYLQMNSLKPEDTAVYYCAVVGYNWGQGTQVTVSS	low polyreactivity
QVQLVESGGGLVQAGGSLRLSCAASGRIFGWYAMGWYRQSPGKERELVAAITGSGSRTYYADSVKGRFTISRDNAKNTVYLQMNSLKPEDTAVYYCAVPTRRRRIYDYWGQGTQVTVSS	high polyreactivity
QVQLVESGGGLVQAGGSLRLSCAASGRIFGYHARGWSRQAPGKERELVAAIDYTGGSTYYADSVKGRFTISRDNAKNTVYLQMNSLKPEETAVNYCAKDRTTPWEEDAYWGQGTQVTVSS	low polyreactivity
QVQLVESGGGLVQAGGSLRLSCAASGRIFGYNALGWYRQAPGKERELVAAINSDGSKNYADSVKGRFTISRDNAKNTVYFQMNSLNPEDTALYYCNKELYPVGDYEYWGEGTQVTVSS	low polyreactivity
